The RNAGym collection of RNA variant scans (doi:10.1093/molbev/msab373)

B1: Azoarcus group I ribozyme (parent)
chain: GUGCCUUGCGCCGGGAAACCACGCAAGGGAUGGUGUCAAAUUCGGCGAAACCUAAGCGCCCGCCCGGGCGUAUGGCAACGCCGAGCCAAGCUUCGGCGCCUGCGCCGAUGAAGGUGUAGAGACUAGACGGCACCCACCUAAGGCAAACGCUAUGGUGAAGGCAUAGUCCAGGGAGUGGCGAAAGUCACACAAACCGG

Variants of: B1
Test: reverse-splicing fitness (ratio to wild type); higher = more active; in vitro selection; Mg2+ level not given
Outline: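 An in vitro group I ribozyme library with randomized positions was T7-transcribed and gel-purified. In triplicate, 10 pmol RNA in EPPS pH 7.5 was reacted with 50 pmoles of a 30-nt RNA substrate for 1 h at 37 °C across several added MgCl2 levels (1–48 mM), then stopped with EDTA. Products were reverse transcribed from a substrate-complementary primer, PCR-amplified and sequenced (HiSeq 4000). Fitness is a variant's read proportion after selection over that before, normalised to wild type.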

Compared with C82U A111C A120U A145U C150G C169U U176C, C82U A111C A120U A145U C150G C169U U176A is lower in reverse-splicing fitness: 0.00264 for the first, 0.00227 for the second.

Compared with C82U A111C A120U A145U C150G C169U U176G, C82U A111C A120U A145C C150G C169G U176A is higher in reverse-splicing fitness: 0.0025 for the first, 0.0028 for the second.

First: C82U A111C A120U A145C C150G C169G U176G
Second: C82U A111C A120U A145C C150G C169G U176C
The reverse-splicing fitness of the first is lower: 0.00241 for the first, 0.00262 for the second.

Compared with C82U A111C A120U C150A U176A, C82U A111C A120U C150A U176C is higher in reverse-splicing fitness: 0.00441 for the first, 0.00573 for the second.

Going from C82U A111C A120U C150A U176G to C82U A111C A120U A145G C169U U176G, the reverse-splicing fitness falls from 0.00295 to 0.00206.

First: C82U A111C A120U A145G C169U U176A
Second: C82U A111C A120U A145G C169U U176C
The reverse-splicing fitness of the first is higher: 0.00527 for the first, 0.00342 for the second.

First: C82U A111C A120U A145U C169A U176C
Second: C82U A111C A120U A145U C169A U176A
The reverse-splicing fitness of the first is lower: 0.00251 for the first, 0.00299 for the second.

Going from C82U A111C A120U A145U C169A U176G to C82U A111C A120U A145C C150U C169A U176A, the reverse-splicing fitness rises from 0.00168 to 0.00213.

Going from C82U A111C A120U A145C C150U C169A U176G to C82U A111C A120U A145C C150U C169A U176C, the reverse-splicing fitness rises from 0.00235 to 0.0025.

First: C82U A111C A120U A145U C150G C169A U176G
Second: C82U A111C A120U A145U C150G C169A U176A
The reverse-splicing fitness of the first is lower: 0.00233 for the first, 0.00336 for the second.

First: C82U A111C A120U A145U C150G C169A U176C
Second: C82U A111C A120U A145C C150A C169A U176G
The reverse-splicing fitness of the first is higher: 0.00322 for the first, 0.00183 for the second.

Compared with C82U A111C A120U A145C C150A C169A U176A, C82U A111C A120U A145C C150A C169A U176C is higher in reverse-splicing fitness: 0.00222 for the first, 0.00295 for the second.

First: C82U A111C A120U A145G C150A C169G U176C
Second: C82U A111C A120U A145G C150A C169G U176G
The reverse-splicing fitness of the first is higher: 0.00549 for the first, 0.00246 for the second.

Compared with C82U A111C A120U A145G C150A C169G U176A, C82U A111C A120G C150G U176C is higher in reverse-splicing fitness: 0.00613 for the first, 0.013 for the second.

Compared with C82U A111C A120G C150G U176G, C82U A111C A120G C150G U176A is higher in reverse-splicing fitness: 0.00294 for the first, 0.00789 for the second.

Going from C82U A111C A120U A145C C150U C169G U176G to C82U A111C A120U A145C C150U C169G U176C, the reverse-splicing fitness rises from 0.00216 to 0.00273.

Going from C82U A111C A120U A145C C150U C169G U176A to C82U A111C A120U A145G C150G C169G U176A, the reverse-splicing fitness rises from 0.003 to 0.00829.

First: C82U A111C A120U A145G C150G C169G U176C
Second: C82U A111C A120U A145G C150G C169G U176G
The reverse-splicing fitness of the first is higher: 0.00782 for the first, 0.00376 for the second.

Going from C82U A111C A120U A145U C150G U176A to C82U A111C A120U A145U C150G U176G, the reverse-splicing fitness falls from 0.00354 to 0.00316.

Going from C82U A111C A120U A145U C150G U176C to C82U A111C A120U A145G C150A C169G, the reverse-splicing fitness rises from 0.00509 to 0.00517.

Compared with C82U A111C A120U A145G C150A C169U, C82U A111C A120U A145G C150A C169A is higher in reverse-splicing fitness: 0.0043 for the first, 0.00616 for the second.

First: C82U A111C A120U C150G C169G U176C
Second: C82U A111C A120U C150G C169G U176G
The reverse-splicing fitness of the first is higher: 0.00317 for the first, 0.00254 for the second.

Compared with C82U A111C A120U C150G C169G U176A, C82U A111C A120U A145G U176C is higher in reverse-splicing fitness: 0.00425 for the first, 0.0113 for the second.

Going from C82U A111C A120U A145G U176A to C82U A111C A120U A145G U176G, the reverse-splicing fitness falls from 0.00722 to 0.00307.

Compared with C82U A111C A120U A145G C150A U176A, C82U A111C A120U A145G C150A U176C is higher in reverse-splicing fitness: 0.00653 for the first, 0.00717 for the second.

Going from C82U A111C A120U A145G C150A U176G to C82U A111C A120U U176C, the reverse-splicing fitness rises from 0.00319 to 0.0103.

First: C82U A111C A120U U176G
Second: C82U A111C A120U U176A
The reverse-splicing fitness of the first is lower: 0.00301 for the first, 0.00719 for the second.

Compared with C82U A111C A120G C150A C169A U176A, C82U A111C A120G C150A C169A U176G is lower in reverse-splicing fitness: 0.0163 for the first, 0.00529 for the second.

Compared with C82U A111C A120G C150A C169A U176C, C82U A111C A120U A145C C150U is lower in reverse-splicing fitness: 0.0186 for the first, 0.00868 for the second.

Compared with C82U A111C A120U A145C C150G, C82U A111C A120U A145C C150A is lower in reverse-splicing fitness: 0.00528 for the first, 0.00398 for the second.

First: C82U A111C A120U A145U C150U
Second: C82U A111C A120U A145U C150G
The reverse-splicing fitness of the first is higher: 0.0186 for the first, 0.00613 for the second.

First: C82U A111C A120U A145U C150A
Second: C82U A111C A120G C150G C169A U176C
The reverse-splicing fitness of the first is lower: 0.00535 for the first, 0.00939 for the second.

Compared with C82U A111C A120G C150G C169A U176G, C82U A111C A120G C150G C169A U176A is higher in reverse-splicing fitness: 0.0058 for the first, 0.0104 for the second.

Compared with C82U A111C A120U C150G U176A, C82U A111C A120U C150G U176C is higher in reverse-splicing fitness: 0.0035 for the first, 0.00605 for the second.

First: C82U A111C A120U C150G U176G
Second: C82U A111C A120G C150U U176G
The reverse-splicing fitness of the first is lower: 0.00291 for the first, 0.00514 for the second.

Compared with C82U A111C A120G C150U U176A, C82U A111C A120G C150U U176C is higher in reverse-splicing fitness: 0.0106 for the first, 0.0194 for the second.

First: C82U A111C A145C
Second: C82U A111C A120U C169U U176A
The reverse-splicing fitness of the first is higher: 0.239 for the first, 0.0057 for the second.

Compared with C82U A111C A120U C169U U176C, C82U A111C A120U C169U U176G is lower in reverse-splicing fitness: 0.00419 for the first, 0.00178 for the second.

Going from C82U A111C A120G U176A to C82U A111C A120G U176C, the reverse-splicing fitness rises from 0.0155 to 0.02.

Compared with C82U A111C A120G U176G, C82U A111C A120G C150G C169A is higher in reverse-splicing fitness: 0.00514 for the first, 0.00813 for the second.

Going from C82U A111C A120G C150G C169G to C82U A111C A120G C150G C169U, the reverse-splicing fitness rises from 0.00667 to 0.00766.

Going from C82U A111C A120U A145U C150U C169G to C82U A111C A120U A145U C150U C169U, the reverse-splicing fitness rises from 0.00301 to 0.0037.
